Test results as given in the supplement of paper PMC10567573.

B1: TRIM63 (parent)
chain: QEKKLSFIEALIQQYQEQLDKSTK

Variants of: B1
Test: protein stability index of a GFP-peptide fusion (GPS, HEK-293T) (PSI 1-6); higher = more stable
Conditions: c terminus: a fixed tail appended
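Note: lentivirally expressed fusions sorted by FACS into six bins by GFP to DsRed ratio, PSI derived from sequencing read proportions per bin multiplied by bin number.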

Protein stability index of substitutions, site by site:
F7: Q 4.05 | I 2.58 | S 4.28 | A 4.05 | M 3.33 | V 3.45 | T 3.98 | D 4.53 | E 4.38 | W 4.19 | Y 2.48 | H 4.2 | N 4.97 | R 3.92 | P 4.36 | G 4.64 | C 3.23 | L 3.06
K3: P 2.67 | C 3.24 | D 3.27 | W 1.57 | N 3.11 | R 2.84 | T 3.04 | I 2.01 | V 2.32 | G 3.03 | L 2.15 | F 2.43 | H 2.32 | E 3.04 | S 3.6 | Q 2.85 | Y 2.88
L5: E 3.51 | R 3.05 | I 2.76 | F 2.91 | N 4.19 | P 3.58 | C 2.69 | A 4.08 | H 2.9 | S 3.95 | M 2.38 | W 2.12 | Q 3.34 | D 3.93 | V 2.57 | K 3.11 | G 3.91 | T 2.69 | Y 2.08
Q13: G 2.53 | V 1.98 | F 1.84 | T 2.74 | C 2.67 | E 3.54 | N 2.79 | D 3.54 | A 2.46 | M 2.02 | K 2.64 | I 2.02 | P 4.35 | W 1.32 | L 2.1 | R 2.7 | Y 2.35
I8: R 4.08 | T 2.64 | H 4.92 | A 3.83 | Q 4.32 | L 2.14 | K 4.17 | C 4.38 | F 2.78 | W 3.56 | N 5.18 | M 3.96 | D 4.44 | V 1.28 | P 4.89 | E 4.76 | Y 3.63 | G 5.05
L19: P 3.26 | K 4.08 | E 3.41 | W 2.32 | I 3.19 | Q 3.21 | R 2.91 | F 2.38 | M 3.18 | H 3.54 | D 3.77 | A 4.3
S22: C 2.26 | A 2.23
I12: S 4.28 | N 4.47 | K 3.7 | W 2.11 | G 3.98 | L 3.51 | C 3.87 | R 2.33 | M 2.95 | T 4.45 | D 5.25 | E 4.39 | F 3.18 | A 3.8 | Y 2.37 | P 5.67 | V 2.6
D20: Q 1.92 | R 1.77 | I 1.31 | V 1.2 | M 2.98 | L 1.72 | W 1.83 | P 2.46 | T 2.47 | N 2.08 | H 1.77 | A 2.5 | G 2.13 | C 1.69 | Y 1.48 | F 1.66
K4: D 3.48 | C 1.9 | R 2.77 | W 1.85 | Q 3.4 | A 1.87 | P 3.07 | T 2.49 | E 2.73 | F 2.18 | N 3.32 | S 2.83 | M 1.68 | L 2 | Y 2.53 | H 3.22 | I 1.96 | G 3.03 | V 2.02
A10: Y 2.06 | N 2.73 | V 2.38 | W 1.63 | C 2.14 | M 1.96 | E 3.42 | I 2.54 | G 3.33 | F 2.28 | P 3.98 | T 2.72 | R 2.53 | D 3.47 | S 2.89 | Q 2.89 | H 2.75 | L 2.37 | K 2.39
Q16: E 3.09 | M 1.48 | R 2.38 | A 2.5 | G 3.81 | V 2.7 | H 2.57 | W 1.74 | F 2.07 | Y 2.32 | I 1.87 | N 3.05 | L 1.49 | K 4.03 | S 2.41 | T 2.62 | C 2
E17: C 2.47 | F 2.25 | Y 2.84 | M 2.08 | G 2.21 | I 2.14 | V 1.75 | W 1.3 | N 1.81 | K 2.16 | S 2.26 | Q 2.65 | D 3 | H 2.11 | L 1.8 | T 2.68 | A 2 | R 1.45
Q14: Y 1.95 | R 2.2 | W 1.07 | L 2.89 | N 3.03 | D 3.17 | C 2.8 | P 3.86 | G 3.13 | S 3.5 | V 2.49 | E 2.91 | A 2.43 | H 2.03 | M 2.44 | I 2.98 | T 3.07
Y15: G 4.41 | D 4.75 | S 3.52 | F 1.86 | V 2.09 | T 2.98 | P 4.56 | K 3.9 | A 2.61 | I 2.1 | L 2.08 | W 1 | Q 3.87 | C 2.1 | N 3.75 | H 3.38 | R 4.63
S6: L 2.2 | N 2.59 | Q 2.43 | C 2.74 | M 2.03 | V 2.42 | Y 2.09 | D 3.02 | A 2.16 | K 2.62 | R 3.16 | E 2.86 | P 3.17 | T 2.54 | G 2.8 | F 2.32 | H 2.39 | I 1.74 | W 1.46
E9: S 2.68 | M 2.22 | W 1.6 | Y 1.57 | V 1.7 | I 2.06 | T 1.79 | F 1.8 | Q 2.76 | C 2.05 | P 3.96 | H 2.33 | K 3.62 | A 1.93 | R 2.82 | N 2.64 | L 1.39
K21: Q 3 | E 3.26 | C 2.29 | Y 2.1 | W 1.63 | D 3.76 | G 2.02 | S 2.78 | H 2.23 | L 2.17 | M 2.27 | F 2.54 | A 2.92 | T 1.75 | I 2.86 | P 1.99 | V 3.04
L11: Q 4.81 | F 2.79 | R 4.58 | T 3.96 | H 4.63 | N 4.78 | S 5.13 | I 2.02 | E 4.73 | A 3.71 | C 4.29 | D 5.13 | V 2.65 | W 3.43 | P 5.29 | M 3.09 | G 4.46 | Y 3.31 | K 4.45
Q18: C 2.34 | E 2.51 | S 2.71 | H 1.79 | V 2.3 | A 2.37 | W 3 | G 1.95 | M 1.81 | L 2.25 | D 3.54 | Y 2.49 | I 2.08 | N 3.28 | P 3.31 | F 1.98 | T 2.93 | K 2.58 | R 2.51
